Measured values published in patent publication US20030100021A1.
Each block holds one substance with its values, some of them ahead of it.

Experiments:
Experiment in all cases: cell-based or functional assay
[1] = molecular target: EpoR/LepR-F3-EpoR chimeric bait receptor (pSEL1-EpoR) (human; mouse) (UniProt P19235)
[2] = molecular target: LepR-IRS1 bait receptor (pMET7 LepR-IRS1) (mouse; human) (UniProt P48356)
[3] = molecular target: EpoR/LepR-F3-p53 chimeric bait receptor (pSEL1-p53) (human; mouse) (UniProt P19235)
Sequence of EpoR/LepR-F3-p53 chimeric bait receptor (pSEL1-p53) (human; mouse) (P19235 other isoform, or with tags, fused parts or gaps mutant limits assumed, form in doubt): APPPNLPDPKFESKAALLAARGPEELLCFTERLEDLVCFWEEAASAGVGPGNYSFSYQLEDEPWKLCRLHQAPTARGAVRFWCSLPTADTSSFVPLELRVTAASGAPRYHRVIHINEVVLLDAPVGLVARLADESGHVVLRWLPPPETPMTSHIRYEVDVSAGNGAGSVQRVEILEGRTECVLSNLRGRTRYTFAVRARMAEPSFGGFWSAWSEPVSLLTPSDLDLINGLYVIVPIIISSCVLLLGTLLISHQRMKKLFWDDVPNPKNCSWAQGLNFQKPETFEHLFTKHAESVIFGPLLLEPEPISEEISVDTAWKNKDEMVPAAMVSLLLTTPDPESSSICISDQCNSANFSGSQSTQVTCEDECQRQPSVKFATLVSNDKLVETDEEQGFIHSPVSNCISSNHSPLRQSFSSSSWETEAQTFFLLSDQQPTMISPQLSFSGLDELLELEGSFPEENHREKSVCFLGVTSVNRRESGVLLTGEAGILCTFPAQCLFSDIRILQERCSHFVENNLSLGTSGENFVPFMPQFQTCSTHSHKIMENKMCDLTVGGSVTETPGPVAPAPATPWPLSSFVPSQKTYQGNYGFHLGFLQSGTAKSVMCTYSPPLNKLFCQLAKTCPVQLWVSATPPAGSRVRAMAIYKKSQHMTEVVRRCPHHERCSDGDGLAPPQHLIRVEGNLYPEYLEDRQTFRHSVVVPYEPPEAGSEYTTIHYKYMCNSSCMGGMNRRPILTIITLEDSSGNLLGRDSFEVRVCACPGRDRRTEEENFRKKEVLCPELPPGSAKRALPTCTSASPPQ

[4] = molecular target: βc/LepR-F3-ALK4CA + GM-CSFRα/LepR-F3-Smad3 heteromeric bait receptor (Example 8, transfection a) (mouse; human) (UniProt P32927)
[5] = molecular target: βc/LepR-F3-Smad3 + GM-CSFRα/LepR-F3-ALK4CA heteromeric bait receptor (Example 8, transfection b) (mouse; human) (UniProt P32927)
[6] = molecular target: LepR Y985/1077F mutant (pMET7 LepRY985/1077F) (mouse) (UniProt P48356)
Sequence of LepR Y985/1077F mutant (pMET7 LepRY985/1077F) (mouse) (P48356 other isoform, or with tags, fused parts or gaps mutant): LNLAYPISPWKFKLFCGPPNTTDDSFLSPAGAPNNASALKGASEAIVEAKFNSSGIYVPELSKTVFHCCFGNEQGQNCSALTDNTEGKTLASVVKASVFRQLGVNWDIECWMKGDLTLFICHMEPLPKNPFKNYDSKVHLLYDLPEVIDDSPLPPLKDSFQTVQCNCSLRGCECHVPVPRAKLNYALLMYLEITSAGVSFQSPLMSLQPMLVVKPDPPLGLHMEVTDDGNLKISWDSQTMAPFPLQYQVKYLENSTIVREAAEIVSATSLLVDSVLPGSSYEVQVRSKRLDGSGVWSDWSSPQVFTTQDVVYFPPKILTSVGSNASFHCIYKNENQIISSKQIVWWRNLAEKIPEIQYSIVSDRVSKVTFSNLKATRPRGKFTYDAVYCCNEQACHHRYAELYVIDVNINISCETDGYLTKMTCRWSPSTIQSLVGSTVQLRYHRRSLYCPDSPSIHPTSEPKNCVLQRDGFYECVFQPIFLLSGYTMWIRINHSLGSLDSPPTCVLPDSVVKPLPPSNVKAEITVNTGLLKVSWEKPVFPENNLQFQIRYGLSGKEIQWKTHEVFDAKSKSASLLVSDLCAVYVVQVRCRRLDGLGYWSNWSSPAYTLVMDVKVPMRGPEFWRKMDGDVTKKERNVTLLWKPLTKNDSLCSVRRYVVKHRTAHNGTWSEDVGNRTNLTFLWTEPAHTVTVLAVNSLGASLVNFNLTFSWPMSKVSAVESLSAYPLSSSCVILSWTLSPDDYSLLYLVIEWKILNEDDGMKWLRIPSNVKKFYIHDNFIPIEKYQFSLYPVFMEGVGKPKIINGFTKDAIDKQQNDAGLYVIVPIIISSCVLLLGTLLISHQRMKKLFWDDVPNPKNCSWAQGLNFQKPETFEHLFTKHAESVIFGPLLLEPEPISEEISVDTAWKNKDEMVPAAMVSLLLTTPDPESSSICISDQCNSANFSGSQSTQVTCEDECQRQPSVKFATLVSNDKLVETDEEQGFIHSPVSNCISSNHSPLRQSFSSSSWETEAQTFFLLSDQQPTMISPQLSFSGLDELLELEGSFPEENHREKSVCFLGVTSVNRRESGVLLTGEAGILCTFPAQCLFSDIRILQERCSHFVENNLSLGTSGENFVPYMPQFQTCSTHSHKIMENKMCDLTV

Sequence of EpoR/LepR-F3-EpoR chimeric bait receptor (pSEL1-EpoR) (human; mouse) (P19235 other isoform, or with tags, fused parts or gaps mutant limits assumed, form in doubt): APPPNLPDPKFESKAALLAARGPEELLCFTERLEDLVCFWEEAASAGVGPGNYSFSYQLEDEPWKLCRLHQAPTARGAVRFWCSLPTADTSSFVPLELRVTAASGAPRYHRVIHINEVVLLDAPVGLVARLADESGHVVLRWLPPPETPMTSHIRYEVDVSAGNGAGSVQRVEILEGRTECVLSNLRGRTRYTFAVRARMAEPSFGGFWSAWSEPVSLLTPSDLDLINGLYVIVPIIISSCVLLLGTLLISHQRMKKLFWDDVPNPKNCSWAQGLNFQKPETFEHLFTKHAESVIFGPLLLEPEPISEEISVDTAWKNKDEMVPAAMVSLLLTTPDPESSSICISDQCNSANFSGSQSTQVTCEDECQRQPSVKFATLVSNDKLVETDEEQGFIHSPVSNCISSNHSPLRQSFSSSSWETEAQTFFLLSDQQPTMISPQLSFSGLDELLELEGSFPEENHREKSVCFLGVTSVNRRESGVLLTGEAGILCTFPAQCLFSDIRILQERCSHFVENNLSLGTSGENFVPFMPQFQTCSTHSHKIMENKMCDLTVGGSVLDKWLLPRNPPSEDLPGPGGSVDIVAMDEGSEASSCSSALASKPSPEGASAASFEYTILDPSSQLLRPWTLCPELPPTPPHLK
Sequence of flag-gp130-SVT prey (pMG1-SVT; pMET7-flag-gp130-SVT) (P40189 761-918, tags or fused parts left off): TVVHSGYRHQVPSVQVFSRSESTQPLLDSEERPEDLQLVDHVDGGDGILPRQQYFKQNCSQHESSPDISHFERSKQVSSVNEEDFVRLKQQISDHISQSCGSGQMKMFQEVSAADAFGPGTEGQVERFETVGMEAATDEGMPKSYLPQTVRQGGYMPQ

luciferase activity (rPAP1-luci reporter), fold induction, erythropoietin [1]: 6.2 fold | luciferase activity (rPAP1-luci reporter), fold induction, erythropoietin plus forskolin [1]: 10.5 fold
Substance: flag-gp130-CIS prey (pMG1-CIS) (from UniProt P40189 761-918; Q62225 2-257)

luciferase activity (rPAP1 promoter), fold induction, leptin co-stimulated with forskolin [2]: 2.5 fold
Substance: flag-gp130-GRB2S prey (pMG1-GRB2S) (from UniProt P40189 761-918; P62993 60-158)

Substance: flag-gp130-SVT prey (pMG1-SVT; pMET7-flag-gp130-SVT) (from UniProt P40189 761-918; P03070 261-708)
luciferase activity (rPAP1-luci reporter), fold induction, erythropoietin [3]: 9.4 fold | luciferase activity (rPAP1-luci reporter), fold induction, erythropoietin plus forskolin [3]: 14.6 fold

luciferase activity (rPAP1 promoter), fold induction, leptin [2]: 5.2 fold | luciferase activity (rPAP1 promoter), fold induction, leptin co-stimulated with forskolin [2]: 12 fold
Substance: flag-gp130-VavS prey (pMG1-VavS) (from UniProt P40189 761-918; P15498 259-789)

luciferase activity (rPAP1 promoter), fold induction, GM-CSF [4]: 3 fold | luciferase activity (rPAP1 promoter), fold induction, GM-CSF co-stimulated with forskolin [4]: 37 fold | luciferase activity (rPAP1 promoter), fold induction, GM-CSF [5]: 9 fold | luciferase activity (rPAP1 promoter), fold induction, GM-CSF co-stimulated with forskolin [5]: 71 fold
Substance: pMG2-Smad4 prey (flag-gp130 with 6 STAT recruitment sites fused to human Smad4) (from UniProt Q13485 4-552)

luciferase activity (rPAP1-luci reporter), fold induction, leptin [6]: 33.2 fold | luciferase activity (rPAP1-luci reporter), fold induction, leptin co-stimulated with forskolin [6]: 37.6 fold
Substance: recombinant human leptin (R&D systems) (from UniProt P41159 22-167) (ligand)
